One block for each binder: values may come before it.
Key:
[1] = molecular target: T1, ZA domain of ASAP1 (Arf GAP and ankyrin repeat domains), [431–724]ASAP1 (UniProt Q9QWY8 431-724); experiment: NMR intermolecular paramagnetic relaxation enhancement (PRE); Cys159-MTSL myrArf1 with a non-hydrolysable GTP analog on nanodiscs, alone or in complex with wt PH (100 μM), and 100 μM isotopically labeled isolated ZA domain; settings: both partners purified
T1 construct: Isotopically labelled for the PRE experiment; also called ΔPHZA; isolated ZA domain
T1 sequence (looked up): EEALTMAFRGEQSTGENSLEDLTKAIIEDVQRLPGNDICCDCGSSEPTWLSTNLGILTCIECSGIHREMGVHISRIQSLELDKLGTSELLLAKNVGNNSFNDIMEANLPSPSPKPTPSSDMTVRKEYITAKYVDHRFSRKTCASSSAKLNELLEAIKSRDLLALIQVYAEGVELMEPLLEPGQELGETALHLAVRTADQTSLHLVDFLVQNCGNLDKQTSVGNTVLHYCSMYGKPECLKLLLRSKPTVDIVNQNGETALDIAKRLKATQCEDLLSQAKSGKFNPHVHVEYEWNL

[2] = molecular target: T2, myristoylated human Arf1 (myrArf1), GTP-bound form at a membrane surface (human, UniProt P84077 1-181, N-myristoylated); experiment: other fluorescence titration + other: inhibition of GAP activity; PH domain titrated; (i) rate of mant-GTP dissociation from myrArf1 on LUVs with 5 mol% PI(4,5)P2, followed by FRET from Arf tryptophan to mant-GTP, excess GTP 160 μM; (ii) IC50 of PH domain for GAP activity of 1 nM wt PZA on myrArf1·GTP below the Km; both served as proxies for the affinity; settings: both partners purified
T2 construct: human Arf1, Uniprot P84077, gene cloned into MCS1 of pETDuet-1; Loaded with GTP, GTPγS or mant-GTP and anchored to MSPΔH5 nanodiscs or LUVs with PI(4,5)P2; Isotopically labelled for NMR; also called myrArf1·GTPγS; Arf·GTP

[3] = molecular target: T2, myristoylated human Arf1 (myrArf1), …; experiment: cell-based or functional assay

T2 sequence (P84077 whole entry, the tested form may be a part): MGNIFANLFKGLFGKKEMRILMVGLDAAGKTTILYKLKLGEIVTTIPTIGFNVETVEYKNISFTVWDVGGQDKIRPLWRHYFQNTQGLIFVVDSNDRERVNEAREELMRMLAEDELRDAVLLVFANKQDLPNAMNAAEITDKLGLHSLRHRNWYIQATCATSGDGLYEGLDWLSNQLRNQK

- Kd [1]: 100 to 1000 µM
B1: Cys159-MTSL tagged myrArf1 (natural protein)
chain: not shown
modifications: N-myristoylated; MTSL nitroxide spin label on the native Cys159
notes: also called Arf (in the ZA PRE experiment); source: E. coli, co-expressed with yeast NMT, purified; spin-labelled with MTSL

- affinity relative to wt PH [2]: ~0.5 fold of wt PH
- 'in trans' stimulation of GTP hydrolysis by ZA on myrArf1 (LUVs), relative to wt PH [3]: 0.01 fold of wt PH
B2: ΔN14 ASAP1 PH domain, [339–451]ASAP1 (domain or fragment, UniProt Q9QWY8 339-451, looked up)
chain: GSEKKGFLLKKSDGIRKVWQRRKCAVKNGILTISHATSNRQPAKLNLLTCQVKPNAEDKKSFDLISHNRTYHFQAEDEQDYIAWISVLTNSKEEALTMAFRGEQSTGENSLED
notes: ASAP1 residues 339-451: PH domain without residues 325-338 (the first 14 residues of the wt PH construct); also called ΔN14PH; source: E. coli BL21 Star (DE3) (pET3a) or BL21 (DE3) (pET21), purified (HiTrap SP HP, SEC)

Reference: article PMC11957191, “The PH domain in the ArfGAP ASAP1 drives catalytic activation through an unprecedented allosteric mechanism” (Research Square, 2025)
